Test results reported in paper PMC3347801.

Biological target: human CD81 large extracellular loop fused to glutathione S-transferase (UniProt P60033)
Experiment: CD81 binding assay (immobilized GST-CD81 LEL capture of E1E2 from cell lysate, detection with anti-E2 serum R646)
Conditions: lysate concentration normalized for reactivity with AP33 and ALP98 mAbs in a GNA ELISA; mock signal subtracted; triplicate; parent: est. 100; read off a plot

Sequence of UniProt P60033 (P60033 113-201): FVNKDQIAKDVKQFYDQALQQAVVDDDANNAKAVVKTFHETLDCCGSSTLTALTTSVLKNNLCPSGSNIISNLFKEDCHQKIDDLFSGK

Substance | percent of parent
HCV envelope glycoprotein E2, wild type (genotype 1a strain H77c) (from UniProt P27958) in549 (CLNNW inserted after W549) | 45 % of WT
HCV envelope glycoprotein E1, wild type (genotype 1a strain H77c) (from UniProt P27958) in218 (VFKHD inserted after D218) | 93 % of WT
HCV envelope glycoprotein E2, wild type (genotype 1a strain H77c) (from UniProt P27958) in533 (CLNND inserted after D533) | 19 % of WT
HCV envelope glycoprotein E2, wild type (genotype 1a strain H77c) (from UniProt P27958) in422 (MFKHI inserted after I422) | 22 % of WT
HCV envelope glycoprotein E1, wild type (genotype 1a strain H77c) (from UniProt P27958) in343 (CLNKA inserted after A343) | 66 % of WT
HCV envelope glycoprotein E2, wild type (genotype 1a strain H77c) (from UniProt P27958) in682 (LFKHL inserted after L682) | 83 % of WT
HCV envelope glycoprotein E2, wild type (genotype 1a strain H77c) (from UniProt P27958) in734 (CLNTC inserted after C734) | 96 % of WT
HCV envelope glycoprotein E2, wild type (genotype 1a strain H77c) (from UniProt P27958) in692 (LFKHL inserted after L692) | 82 % of WT
HCV envelope glycoprotein E2, wild type (genotype 1a strain H77c) (from UniProt P27958) in413 (MFKQL inserted after L413) | 72 % of WT
HCV envelope glycoprotein E2, wild type (genotype 1a strain H77c) (from UniProt P27958) in573 (CLNRG inserted after G573) | 98 % of WT
HCV envelope glycoprotein E1, wild type (genotype 1a strain H77c) (from UniProt P27958) in341 (LFKHP inserted after P341) | 100 % of WT
HCV envelope glycoprotein E2, wild type (genotype 1a strain H77c) (from UniProt P27958) in424 (CLNNS inserted after S424) | 25 % of WT
HCV envelope glycoprotein E2, wild type (genotype 1a strain H77c) (from UniProt P27958) in531 (MFKHA inserted after A531) | 18 % of WT
HCV envelope glycoprotein E2, wild type (genotype 1a strain H77c) (from UniProt P27958) in726 (FKHLL inserted after L726) | 72 % of WT
HCV envelope glycoprotein E2, wild type (genotype 1a strain H77c) (from UniProt P27958) in732 (CLNIC inserted after C732) | 77 % of WT
HCV envelope glycoprotein E1, wild type (genotype 1a strain H77c) (from UniProt P27958) in263 (CLNID inserted after D263) | 93 % of WT
HCV envelope glycoprotein E2, wild type (genotype 1a strain H77c) (from UniProt P27958) in614 (LFKHR inserted after R614) | 25 % of WT
HCV envelope glycoprotein E2, wild type (genotype 1a strain H77c) (from UniProt P27958) in587 (CLNIR inserted after R587) | 83 % of WT
HCV envelope glycoprotein E2, wild type (genotype 1a strain H77c) (from UniProt P27958) in630 (CLNIR inserted after R630) | 33 % of WT
HCV envelope glycoprotein E2, wild type (genotype 1a strain H77c) (from UniProt P27958) in540 (CLNIN inserted after N540) | 59 % of WT
HCV envelope glycoprotein E2, wild type (genotype 1a strain H77c) (from UniProt P27958) in620 (CLNTC inserted after C620) | 23 % of WT
HCV envelope glycoprotein E1, wild type (genotype 1a strain H77c) (from UniProt P27958) in324 (FKQMM inserted after M324) | 88 % of WT
HCV envelope glycoprotein E2, wild type (genotype 1a strain H77c) (from UniProt P27958) in611 (LFKHY inserted after Y611) | 34 % of WT
